The values that follow come from PMC2726290, “Decoding of Methylated Histone H3 Tail by the Pygo-BCL9 Wnt Signaling Complex” (Molecular Cell, 2008).

This assay concerns pygo null mutant clones in wing discs. Briefly: Rescue assays in Drosophila pygo null mutant clones. The following applies: for rescue of pygo mutant phenotypes (notches and bristle defects): anterior wing margin of adult flies bearing pygo mutant clones, overexpression; for rescue of senseless expression: overexpression by GAL4 system in pygo null mutant wing disc clones, third instar larvae. It counts as in vivo. From the text: To test whether the binding of Pygo to H3K4me is important for its function in vivo, we conducted rescue assays in Drosophila ([de la Roche and Bienz, 2007]). We introduced a point mutation into V757 (in EVND) of Drosophila Pygo, which corresponds to V350 of hPHD that lines its K4me pocket (Figure 4B) and whose mutation drastically reduces its binding to H3K4me3 (Figure 4E). We then generated pygo null mutant clones in wing discs, one of the best-characterized Wingless-responsive tissues whose development depends on Pygo function ([Belenkaya et al., 2002; de la Roche and Bienz, 2007; Kramps et al., 2002; Parker et al., 2002; Thompson et al., 2002]), and we used the GAL4 system to overexpress the Pygo-V757E mutant in these clones, to test its rescue activity in this tissue.
HA-tagged Pygo-V757E was constructed in pUAST, and multiple independent transformant lines were isolated, as described previously for WT HA-Pygo ([Townsley et al., 2004b]). Two different lines were each tested for rescue activity of pygo null mutant clones in the wing disc, as described ([de la Roche and Bienz, 2007]).

Numbering of substitutions follows the chain as printed. Numbers in names are those of the source.

B1: WT Pygo: overexpressed wild-type HA-tagged Drosophila Pygo (protein, UniProt Q9V9W8 1-815, looked up)
Protein pygopus: MTHNLGMAPYRLPGPAGGLCPPDFKPPPPTDIISAPSNPKKRRKTSSAANSAAAVAAAAAAAAAANSMQQQQAPPTPQDLLPPPPMGGFGDTIIASNPFDDSPQVSAMSSSAAAAMAAMNQMGGGPGGGHFGGGGPGGHPHWEDRMGMGGGPPPPPHMHPHMHPHHPGGPMGHPHGPHPHMGGPPPMRGMSPMHPHQMGPGPGVGLPPHMNHGRPGGPGGPGGPVPMGSPMGGIAGMGGMSPMGGMGGPSISPHHMGMGGLSPMGGGPNGPNPRAMQGSPMGGPGQNSPMNSLPMGSPMGNPIGSPLGPPSGPGPGNPGNTGGPQQQQQQPPQPPMNNGQMGPPPLHSPLGNGPTGHGSHMPGGPIPGPGPGPGGLVGPGGISPAHGNNPGGSGNNMLGGNPGGGNSNNNGSNTSNASNNNQNPHLSPAAGRLGVPTSMQSNGPSVSSVASSSVPSPATPTLTPTSTATSMSTSVPTSSPAPPAMSPHHSLNSAGPSPGMPNSGPSPLQSPAGPNGPNNNNSNNNNGPMMGQMIPNAVPMQHQQHMGGGPPGHGPGPMPGMGMNQMLPPQQPSHLGPPHPNMMNHPHHPHHHPGGPPPHMMGGPGMHGGPAGMPPHMGGGPNPHMMGGPHGNAGPHMGHGHMGGVPGPGPGPGGMNGPPHPHMSPHHGHPHHHHNPMGGPGPNMFGGGGGGPMGPGGPMGNMGPMGGGPMGGPMGVGPKPMTMGGGKMYPPGQPMVFNPQNPNAPPIYPCGMCHKEVNDNDEAVFCESGCNFFFHRTCVGLTEAAFQMLNKEVFAEWCCDKCVSSKHIPMVKFKC
modifications: HA tag
For the molecule B1, the “rescue of pygo mutant phenotypes (notches and bristle defects)” value is “rescued all pygo mutant phenotypes”; the “rescue of senseless expression” value is given as “restored expression of senseless”.

B2: Pygo-V757E: HA-tagged Drosophila Pygo with point mutation in V757 (in EVND) (protein, UniProt Q9V9W8 1-815, looked up, variant V757E)
Protein pygopus: B1 Protein pygopus with V757E
modifications: HA tag
Turning to B2, the “rescue of pygo mutant phenotypes (notches and bristle defects)” value is “WT Pygo but not Pygo-V757E rescued all pygo mutant phenotypes”; the “rescue of senseless expression” value was “no rescue whatsoever was observed”.
